Experiments:
BglC (His6-BglC) = target: T1, BglC (His6-BglC) (Streptomyces scabiei, UniProt C9Z448); assay: glucose release; substrate inhibition fit; assay type: biochemical; details: Ki of substrate inhibition
T1 construct: gene SCAB_57721; N-terminal His6 tag kept; plasmid pSAJ022; host E. coli BL21(DE3) Rosetta

BcpE2 = target: T2, BcpE2 (Streptomyces scabiei, UniProt C9ZDY4); assay: TLC hydrolysis assay with purified enzyme (complete hydrolysis); assay type: biochemical
T2 construct: gene SCAB_64101; BcpE2-His6

purified protein [1] = substrate: COc1cc2ccc(=O)oc2cc1O[C@@H]1O[C@H](CO)[C@@H](O)[C@H](O)[C@H]1O; assay: purified protein; assay type: biochemical, Streptomyces scabiei
purified protein [2] = substrate: OC/C=C/c1ccc(O[C@@H]2O[C@H](CO)[C@@H](O)[C@H](O)[C@H]2O)cc1; assay: purified protein; assay type: biochemical, Streptomyces scabiei
[3] = substrate: COc1cc(/C=C/CO)cc(OC)c1O[C@@H]1O[C@H](CO)[C@@H](O)[C@H](O)[C@H]1O; assay: Hydrolysis kinetics (glucose release, Km) and TLC with purified enzyme; assay type: biochemical, Streptomyces scabiei
[4] = substrate: COc1cc(/C=C/CO)ccc1O[C@@H]1O[C@H](CO)[C@@H](O)[C@H](O)[C@H]1O; assay: as above; assay type: biochemical, Streptomyces scabiei
[5] = substrate: OC[C@H]1O[C@@H](O[C@H]2[C@H](O)[C@@H](CO)OC(O)[C@@H]2O)[C@H](O)[C@@H](O)[C@@H]1O; assay: as above; assay type: biochemical, Streptomyces scabiei
[6] = substrate: OC[C@H]1O[C@@H](Oc2ccc(O)cc2)[C@H](O)[C@@H](O)[C@@H]1O; assay: as above; assay type: biochemical, Streptomyces scabiei
[7] = substrate: OCc1ccccc1O[C@@H]1O[C@H](CO)[C@@H](O)[C@H](O)[C@H]1O; assay: as above; assay type: biochemical, Streptomyces scabiei

T1 sequence (C9Z448 entry or part of it): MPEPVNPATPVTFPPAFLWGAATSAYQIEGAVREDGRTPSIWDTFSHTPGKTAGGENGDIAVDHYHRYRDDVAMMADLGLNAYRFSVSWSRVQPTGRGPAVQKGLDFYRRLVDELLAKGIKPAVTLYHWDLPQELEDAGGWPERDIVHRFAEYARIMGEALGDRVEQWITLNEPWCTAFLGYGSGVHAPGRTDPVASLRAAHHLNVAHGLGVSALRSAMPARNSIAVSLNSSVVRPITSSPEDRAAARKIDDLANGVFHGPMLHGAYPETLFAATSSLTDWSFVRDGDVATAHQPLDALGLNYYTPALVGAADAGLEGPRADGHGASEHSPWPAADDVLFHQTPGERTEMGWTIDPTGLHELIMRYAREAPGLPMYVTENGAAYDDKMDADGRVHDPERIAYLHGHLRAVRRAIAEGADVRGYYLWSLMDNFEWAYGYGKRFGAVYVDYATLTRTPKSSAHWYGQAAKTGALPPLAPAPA

How did the Ki (BglC (His6-BglC)) turn out when COc1cc2ccc(=O)oc2cc1O[C@@H]1O[C@H](CO)[C@@H](O)[C@H](O)[C@H]1O [Scopolin] was run?
Its Ki is “the Ki value for BcpE2 appeared to be lower, indicating a stronger inhibition compared to BglC”.

With OC[C@H]1O[C@@H](Oc2cc3c(O[C@@H]4O[C@H](CO)[C@@H](O)[C@H](O)[C@H]4O)cc(O)cc3[o+]c2-c2ccc(O)c(O)c2)[C@H](O)[C@@H](O)[C@@H]1O [Cyanin] as the molecule, how does the “TLC hydrolysis assay with purified enzyme (complete hydrolysis)” value (BcpE2) read?
Its value is “Cyanin (Cyanidin-3,5-di-O-glucoside)|Antho-cyanosides|+|−|NT|NT|NT|NT”.

With CC(C)(C#N)O[C@@H]1O[C@H](CO)[C@@H](O)[C@H](O)[C@H]1O [Linamarin] as the molecule, how does the “TLC hydrolysis assay with purified enzyme (complete hydrolysis)” value (BcpE2) read?
Its value is “Linamarin|Cyanogenic glycosides|+|−|NT|NT|NT|NT”.

B1: BcpE2 (Streptomyces scabiei 87.22) (protein)
chain: MAATPGTRTTPADEAREAAVEKALAALDLDAKARLLSGQDMWTLPALPEIGLASLVMSDGPIGVRGVRWTADDPSVALPSPTALAATWDPGLARRAGVLLAQEARRKGVHVLLAPTVNLHRSPLGGRHFEAYSEDPYLTGEIGSGYVTGVQAGGVGTTVKHFVANDAETDRFTVNNLVSARALRELYLAPFEAIVANAHPWGIMTAYNQVNGSTMTEHRYLVNEVLRGEWGFDGFNVSDWLAARSTTGALTGGLDVAMPGPATVYGEPLAAAVRAGEVTESLLDEAVRRVLRLAARVGILEGAAPAVTELPAPVDGEALAREIARRSFVLVRNEVRDGRAALPLEQGATVALIGAAARDARVLGGGSATVFPARVVSPLDGLTAALPEGAPTYALGADPNEELAVADTGFTLRAVCRDASGTVIGTRSAPNGHIQWMGSDLPDGVTHATLHSVELTGTFTPRETGTHTFGVKGLGAYTLTVDGTTHFDGVRTTDTDDPFVSFFGAPVPLAEVELTEGTPLEVSLTHVVELAADAPITMLAFSLCHQEPQRDPDELIAEAVEAARAADTAVVVVATTERVESEGFDRKDLRLPGRQDDLVRAVAAANPATVVVVNAGSPVELPWREDVAAVLLTWFPGQEGGAALAEVLTGAHEPGGRLPTTWGSLTGAPVTQVTPTAGELVYDEGVFIGYRAWDKEDRTPTYPFGHGLGYTDWTYESLDVTGTTATVRVRNTGTREGRETVQLYLAPTTADENRPTRWLAGFATVEAAPGETAEAVVRLPRRAFEIWDETTGAWVYVTGSYEVAAGRSIADRRTRVTIEAP
notes: BcpE2-His6
For B1, which Km (purified protein [1]) is on record?
Its Km is 356 µM.

What about the kcat (purified protein [1]) of the same molecule?
The kcat was 192 s⁻¹.

And the kcat/Km (purified protein [1])?
Its kcat/Km is 540000 M⁻¹ s⁻¹.

What about the Km (purified protein [2]) of the same molecule?
The Km was 236 µM.

What about the kcat (purified protein [2]) of the same molecule?
The kcat was 77.2 s⁻¹.

And the kcat/Km (purified protein [2])?
Its kcat/Km is 326000 M⁻¹ s⁻¹.

And the Km [3]?
The Km was 608 ± 166 µM.

What about the kcat [3] of the same molecule?
The kcat was 26.4 ± 3.07 s⁻¹.

What about the kcat/Km [3] of the same molecule?
The kcat/Km was 43500 M⁻¹ s⁻¹.

And the Km [4]?
The Km was 151 ± 43 µM.

And the kcat [4]?
The kcat was 83.3 ± 5.9 s⁻¹.

What about the kcat/Km [4] of the same molecule?
Its kcat/Km is 551000 M⁻¹ s⁻¹.

What about the Km [5] of the same molecule?
Its Km is 6557 ± 1410 µM.

And the kcat [5]?
The kcat was 8.74 ± 1.02 s⁻¹.

And the kcat/Km [5]?
Its kcat/Km is 1330 M⁻¹ s⁻¹.

And the Km [6]?
Its Km is 367 ± 80 µM.

And the kcat [6]?
The kcat was 43.2 ± 2.5 s⁻¹.

And the kcat/Km [6]?
Its kcat/Km is 117000 M⁻¹ s⁻¹.

What about the Km [7] of the same molecule?
The Km was 142 ± 30 µM.

What about the kcat [7] of the same molecule?
The kcat was 53.2 ± 2.37 s⁻¹.

And the kcat/Km [7]?
Its kcat/Km is 376000 M⁻¹ s⁻¹.

Reference: PMC9426481, “Structure and Function of BcpE2, the Most Promiscuous GH3-Family Glucose Scavenging Beta-Glucosidase” (mBio, 2022)
